# Test results reported in patent US8016811B2, “Method for transdermal delivery of permeant substances” (priority 2003, dated 2011).
# Test: Serum insulin concentration profile in hairless rats after transdermal patch over micropores or subcutaneous dosing
# Format: in vivo
# Description: This example illustrates the ability of the microporation system to mimic the delivery of a subcutaneous infusion of insulin. Hairless rats were purchased and dosed with insulin in accordance with the terms set forth below. The insulin concentration within the serum of the rats was then monitored at given time intervals to provide a blood serum insulin concentration profile.
# Three hairless rats were given a 1 U/kg dose of insulin by way of subcutaneous administration. The concentration of insulin in the rats' blood serum was monitored. The average insulin blood serum concentration for the three rats was determined.
# Five hairless rats were purchased from Charles River. Jugular vein cannulation was performed the day before the experiment to allow the animals recovering from the surgery.
# The experiment was conducted as follows. The rats were anesthetized immediately before the skin treatment, which consisted of cleaning the abdomen side of the rat skin with an alcohol swab. The abdomen was allowed to air dry.
# After the abdomen dried, the microporation system was placed longitudinally, and the bottom corners marked, on the cleaned skin site. The cleaned skin site was then microporated using the microporation system. Following microporation, the microporation system was removed and a liquid reservoir patch was placed on the microporated area. The patch was then filled with a 50 IU/ml dose of insulin and a time-zero sample was immediately taken. The remaining samples were taken according to the preset schedule.
# After the sample at the 4th hour was taken, the rats were anesthetized to retrieve the donor solution from the liquid reservoir patch. Blood sampling continued until the 8th hour.
# Afterward, the test was conducted again, however the patch applied was 2 cm^2 in area. Lastly, the test was performed for a third time, with the patch having a size of 3 cm^2.
# Three hairless rats were prepared and tested in accordance with the procedure set forth in Test 1 above. However, for this test, a second generation planar microporation system was used to create the micropores in the abdomen of each rat. In addition, the transdermal patch contained a 50 IU/ml dose of insulin when applied to the microporated area of the skin of each rat.
# This test was designed to determine any differences in the types of transdermal patches used to deliver insulin through the micropores. Five hairless rats were prepared and tested in accordance with the procedure set forth in Test 1 above. Following microporation of each rat, an early prototype liquid reservoir patch was applied to two of the rats, while a second generation transdermal patch was used to deliver insulin in the remaining three rats. Each patch contained a 50 IU/ml dose of insulin when applied to the microporated area of the skin of each rat.
# A number of rats were prepared in accordance with the procedure set forth in Test 1 above. For those rats that had delivery openings formed on their abdomen, the delivery openings were formed using an early prototype microporation system. Insulin was delivered to the rats using a second generation delivery patch containing the desired concentration of insulin.
# The delivery patch was applied to the rats' abdomen without microporation. The rats in this control group were given a […] concentration dose of insulin.
# For the other rats in this test, the delivery patch contained insulin in concentrations of 10 IU/ml (6 rats), 25 IU/ml (6 rats), […] or 100 IU/ml (6 rats). The insulin serum concentration was monitored in each of the rats at various intervals of time. The average concentration of the rats for that particular insulin concentration (and whether delivery openings were formed or not) was determined and an insulin serum concentration profile was developed.
substance,measurement,setting,value
insulin,"average insulin serum concentration, transdermal through micropores versus subcutaneous","50 IU/ml patch for 4 hours (5 rats) vs 1 U/kg subcutaneous (3 rats), FIG. 5",higher average concentration
same,"duration of higher average insulin serum concentration, transdermal versus subcutaneous","50 IU/ml patch for 4 hours vs 1 U/kg subcutaneous, FIG. 5",longer duration
same,"insulin serum concentration, planar array microporation system versus step and repeat microporation system","50 IU/ml patch for 4 hours, FIG. 7",slightly lower
same,"average insulin serum concentration, change with patch size 1 cm^2 to 2 cm^2","50 IU/ml patch, 4 rats, FIG. 6",roughly doubled
same,"average insulin serum concentration, change with patch size 2 cm^2 to 3 cm^2","50 IU/ml patch, 4 rats, FIG. 6",roughly doubled
same,"average insulin concentration, early prototype liquid reservoir patch versus second generation transdermal patch","50 IU/ml patch, FIG. 8",very similar
same,"average insulin serum concentration, 100 IU/ml dose in comparison to other doses","microporated, 100 IU/ml patch, 6 rats, FIG. 9",very high
same,"average insulin serum concentration, 50 IU/ml dose versus 25 IU/ml dose","microporated, FIG. 9",not much difference
same,"average insulin serum concentration, rats without delivery openings","patch on non-microporated abdomen, 3 rats, FIG. 9",very low
